B1: HDV Ribozyme (parent)
chain: GGCCGGCAUGGUCCCAGCCUCCUCGCUGGCGCCGGCUGGGCAACAUUCCGAGGGGACCGUCCCCUCGGUAAUGGCGAAUGGGACCCA

Variants of: B1
Assay: self-cleavage, relative activity (ratio to wild type); higher = more cleavage; co-transcriptional

Variant	self-cleavage
GGCCGGCCUGGUCCCAGCCUCCUCGCUGGCGCCGGGUGGGCAACAUUCCGAGGGGACCGUCCCCUCGGUAAUGGCGAAUGGGACCCA [A8C C36G]	0
GGCCGGCCUGGUCCCAGCCUCCUCGCUGGCGCCGGAUGGGCAACAUUCCGAGGGGACCGUCCCCUCGGUAAUGGCGAAUGGGACCCA [A8C C36A]	0
GGCCGGCCUGGUCCCAGCCUCCUCGCUGGCGCCGGCUGGGCAACAUUCCGAGGGGACCGUCACCUCGGUAAUGGCGAAUGGGACCCA [A8C C62A]	0.918
GGCCGGCCUGGUCCCAGCCUCCUCGCUGGCGCCGGCUGGGCAACAUUCCGAGGGGACCGUCGCCUCGGUAAUGGCGAAUGGGACCCA [A8C C62G]	0.475
GGCCGGCCUGGUCCCAGCCUCCUCGCUGGCGCCGGCUGGGCAACAUUCCGAGGGGACCGUCCCCUUGGUAAUGGCGAAUGGGACCCA [A8C C66U]	0.76
GGCCGGCCUGGUCCCAGCCUCCUCGCUGGCGCCGGCUGGGCAACAUUCCGAGGGGACCGUCCCCUGGGUAAUGGCGAAUGGGACCCA [A8C C66G]	0.997
GGCCGGCCUGGUCCCAGCCUCCUCGCUGGCACCGGCUGGGCAACAUUCCGAGGGGACCGUCCCCUCGGUAAUGGCGAAUGGGACCCA [A8C G31A]	0.162
GGCCGGCCUGGUCCCAGCCUCCUCGCUGGCGCCGGCUGGACAACAUUCCGAGGGGACCGUCCCCUCGGUAAUGGCGAAUGGGACCCA [A8C G40A]	0.511
GGCCGGCCUGGUCCCAGCCUCCUUGCUGGCGCCGGCUGGGCAACAUUCCGAGGGGACCGUCCCCUCGGUAAUGGCGAAUGGGACCCA [A8C C24U]	0.396
GGCCGGCCUGGUCCCAGCCUCCUAGCUGGCGCCGGCUGGGCAACAUUCCGAGGGGACCGUCCCCUCGGUAAUGGCGAAUGGGACCCA [A8C C24A]	0.434
GGCCGGCCUGGUCCCAGCCUCCUCGCUAGCGCCGGCUGGGCAACAUUCCGAGGGGACCGUCCCCUCGGUAAUGGCGAAUGGGACCCA [A8C G28A]	0.252
GGCCGGCCUGGUCCCAGCCUCCUCGCUUGCGCCGGCUGGGCAACAUUCCGAGGGGACCGUCCCCUCGGUAAUGGCGAAUGGGACCCA [A8C G28U]	0.0978
GGCCGGCCUGGUCCCAGCCUCCUCGCUGGCGCCGGCUGGGUAACAUUCCGAGGGGACCGUCCCCUCGGUAAUGGCGAAUGGGACCCA [A8C C41U]	0.748
GGCCGGCCUGGUCCCAGCCUCCUCGCUGGCGCCGGCUGGGCAACAUUCCGAGGGGACCGUCCCCUCGGUAAUGGCGAAUGGGACCUA [A8C C86U]	0.862
GGCCGGCCUGGUCCCAGCCUCCUCGCUGGCGCCGGCUGGGCAACAUUCCGAGGGGACCGUCCCCUCGGUAAUGGCGAAUGGGACCAA [A8C C86A]	0.72
GGCCGGCCUGGUCUCAGCCUCCUCGCUGGCGCCGGCUGGGCAACAUUCCGAGGGGACCGUCCCCUCGGUAAUGGCGAAUGGGACCCA [A8C C14U]	0.831

Variant	self-cleavage
GGCCGGCCUGGUCCCAGCCUACUCGCUGGCGCCGGCUGGGCAACAUUCCGAGGGGACCGUCCCCUCGGUAAUGGCGAAUGGGACCCA [A8C C21A]	0.0449
GGCCGGCCUGGUCCCAGCCUCCUCGCUGGCGCCGUCUGGGCAACAUUCCGAGGGGACCGUCCCCUCGGUAAUGGCGAAUGGGACCCA [A8C G35U]	0.269
GGCCGGCCUGGUCCCAGCCUCCUCGCUGGCGCCGCCUGGGCAACAUUCCGAGGGGACCGUCCCCUCGGUAAUGGCGAAUGGGACCCA [A8C G35C]	0
GGCCGGCCUGGUCCCAGCCUCCUCGAUGGCGCCGGCUGGGCAACAUUCCGAGGGGACCGUCCCCUCGGUAAUGGCGAAUGGGACCCA [A8C C26A]	0.629
GGCCGGCCUGGUCCCAGCCUCCUCGCUGGCGCCGGCUGGGCAACAUUCCGAGGGGACCGUCCUCUCGGUAAUGGCGAAUGGGACCCA [A8C C63U]	0.633
GGCCGGCCUGGUCCCAGCCUCCUCGCUGGCGCCGGCUGGGCAACAUUCCCAGGGGACCGUCCCCUCGGUAAUGGCGAAUGGGACCCA [A8C G50C]	1.04
GGCCGGCCUGGUCCCAGCCUCCUCGCUGGCGCCGGCUGGGCAACAUUCCUAGGGGACCGUCCCCUCGGUAAUGGCGAAUGGGACCCA [A8C G50U]	0.864
GGCCGGCCUGGUCCCAGCCUCGUCGCUGGCGCCGGCUGGGCAACAUUCCGAGGGGACCGUCCCCUCGGUAAUGGCGAAUGGGACCCA [A8C C22G]	0.0791
GGCCGGCCUGGUCCCAGCCUCCUCGCUGGCGCUGGCUGGGCAACAUUCCGAGGGGACCGUCCCCUCGGUAAUGGCGAAUGGGACCCA [A8C C33U]	0.554
GGCCGGCCUGGUCCCAGCCUCCUCGCUGGCGCAGGCUGGGCAACAUUCCGAGGGGACCGUCCCCUCGGUAAUGGCGAAUGGGACCCA [A8C C33A]	0.0504
GGCCGGCCUGGUCCCAGCCUCCUCGCUGGCGCCGGCUGGGCAACAUUCCGAGGGGACCGUUCCCUCGGUAAUGGCGAAUGGGACCCA [A8C C61U]	0.643
GGCCGGCCUGGUCCCAGCGUCCUCGCUGGCGCCGGCUGGGCAACAUUCCGAGGGGACCGUCCCCUCGGUAAUGGCGAAUGGGACCCA [A8C C19G]	0.115
GGCCGGCCUGGUCCCAGCUUCCUCGCUGGCGCCGGCUGGGCAACAUUCCGAGGGGACCGUCCCCUCGGUAAUGGCGAAUGGGACCCA [A8C C19U]	0.0739
GGCCGGCCUGAUCCCAGCCUCCUCGCUGGCGCCGGCUGGGCAACAUUCCGAGGGGACCGUCCCCUCGGUAAUGGCGAAUGGGACCCA [A8C G11A]	0.229
GGCCGGCCUGCUCCCAGCCUCCUCGCUGGCGCCGGCUGGGCAACAUUCCGAGGGGACCGUCCCCUCGGUAAUGGCGAAUGGGACCCA [A8C G11C]	0.151
GGCCGGCCUGGUCCGAGCCUCCUCGCUGGCGCCGGCUGGGCAACAUUCCGAGGGGACCGUCCCCUCGGUAAUGGCGAAUGGGACCCA [A8C C15G]	0.378

— the RNAGym collection of RNA variant scans (doi:10.7554/elife.80360)
